Drawing on PMC9714913, this text covers stoichiometry N for one substance.

In the assay the target is AMC009 SOSIP gp120-gp41 protomer (HIV-1 (clade B, donor H18877)). Put plainly: cryo-EM structure; AMC009 SOSIPv5.2 trimer with 10-fold molar excess of ACS114 Fab for 12 hours at RT, then 6-fold molar excess of ACS122 Fab for 15 minutes; complex purified by SEC in TBS; ~4.0 Å.

Broadly, the stoichiometry N is a count of units in the complex or per binding partner. For “AMC009 SOSIP gp120-gp41 protomer (complex)”, the stoichiometry N is 3.
